Here are results for four molecules from doi:10.1101/2023.01.10.523494 (bioRxiv, 2023).

Assay [1] addresses receptor binding domain (RBD) of the wildtype (WT) SARS-CoV-2 spike protein (SARS-CoV-2, wildtype (sequence as in …)).
Assay [2] deals with SARS-CoV-2 RBD for crystallisation (SARS-CoV-2 (wildtype), UniProt P0DTC2). Nature of the assay: crystal structure.

B1: hRBD13 (antibody, V domains shown)
VH: QVQLVESGGGVVQPGRSLRLSCAVSGFTFRNYGMDWVRQAPGKGLEWVAVISYDGSNKYYADSVKGRFTISRDNSKNTLFLHLNSLRAEDTAVYYCAKAGGGPYCGGGNCYMHYFDYWGQGTQVTVSS
VL: DIQMTQSPSSLSASVGDRVTITCQASQDINNYLNWYQQKPGKAPKLLIYDASNLETGVPLRFSGSGSATHFSFTISSLQPEDIATYYCQQYDHLPCTFGQGTKLEIR
Turning to B1, the binding result in assay [1] is “binds”.

B2: mRBD2 Fab fragment (Fab, V domains shown)
VH: QVQLQQSGAELARPGASVKLSCKASGYTFISNGISWVKQRTGQGLEWIGEIYPRNGNTYYNEKFKGKATLTADKSSSTAYMELRSLTSEDSAVFFCARDYYYGSFDYWGQGTTLTVSS
VL: DIQMTQSPSSLSASLGERVSLTCRASREISGYLTWLQQKPDGTIKRLIYAASTLDSGVPKRFSGSRSGSDYSLTISSLESEDFADYYCLQYASYPWTFGGGTKLEIK
Turning to B2, the binding result in assay [2] is given as “binds”.

B3: hRBD15 (antibody, V domains shown)
VH: QVQLVQSGAEVKKPGASVKVSCKASGYTFTSQYMHWVRQAPGQGLEWMGIINPSGGSTSYAQKFQGRVTMTSDTSTSTVYMELSSLRSEDTAVYYCARDIYFVPARGGFDPWGQGTLVTVSS
VL: EIVLTQSPGTLSLSPGERATLSCRASQSIISSYLAWYQQKPGQAPRLLIYGASSRATGIPDRFSGSGSGTDFTLTISRLEPEDFAVYYCQQSGSAPRYTFGQGTKLEIK
For B3, the binding result in assay [1] is given as “binds”.

B4: hRBD14 (antibody, V domains shown)
VH: EVQLVESGGGLVQPGGSLRLSCAASGFSFSSSDMHWVRQATGKGLEWVSGIGTSGDTYYLGSVKGRFTISRDDAKNSFYLQMNSLRAGDTAVYYCARGEMAATGLWYYFDYWGQGTLVTVSS
VL: not shown
Take B4: the binding result in assay [1] was “binds”.
